From doi:10.1101/2023.06.19.545549

Target: N2β1α1C1, purified recombinant (the MxDnaK1 chimera with the MxDnaK2 NBD) (Myxococcus xanthus DK1622)
Assay: SDS-PAGE of the purified protein

stoichiometry N: 2
Substance: N2β1α1C1, purified recombinant (the MxDnaK1 chimera with the MxDnaK2 NBD)
